What all share (assay): SPR (Biacore T200), TYRP1 ECD-Fc captured by anti-PGLALA antibody, 1:1 Langmuir fit
(In general: In SPR one partner is held on a chip, and binding of the other changes the refractive index at the surface.)

Assay [1] addresses Cynomolgus TYRP1 extracellular domain (ECD), monomeric fusion to human Fc domain with knob-into-hole and PG LALA modifications and C-terminal Avi-tag (cynomolgus monkey) [IgG part: P01857].
Assay [2] addresses Human TYRP1 extracellular domain (ECD), monomeric fusion to human Fc domain with knob-into-hole and PG LALA modifications and C-terminal Avi-tag (human) [IgG part: P01857].
The target in assay [3] is Mouse TYRP1 extracellular domain (ECD), monomeric fusion to human Fc domain with knob-into-hole and PG LALA modifications and C-terminal Avi-tag (mouse) [IgG part: P01857].

pKd: −log10 of the molar value.

As a reminder, the pKd is the Kd on a negative log10 scale, so that one unit is a factor of ten. Higher therefore signals a low Kd. As for 親TA99抗体 (parental TYRP1 antibody TA99), the pKd in assay [1] was 9.92; in assay [2], 10.05; in assay [3] it was 9.51.

The values above are taken from JP2022028645A.
